Assay results: paper PMC3777854 (Journal of clinical pharmacology, 2013)
Entries after “also recorded” stand apart in the source; their conditions may differ. Marks after values point to notes of the source that are not given here. Square brackets hold non-standard residues; d marks the D form. Peptide text beside a SMILES is read from it. * marks the point of attachment. Dolaproine = CO[C@@H]([C@@H]1CCCN1)[C@@H](C)C(=O)O; Dil = CC[C@H](C)[C@H](NC)[C@@H](CC(=O)O)OC; X1 = C[C@@H](N*)[C@@H](O)c1ccccc1; NMeV = CN[C@H](C(=O)O)C(C)C

Assays:
[1] = system: CYP3A; assay: Effect of brentuximab vedotin on midazolam PK; conditions: for inhibition or induction of CYP3A in humans (conclusion): brentuximab vedotin 1.8 mg/kg, midazolam as probe substrate
[2] = system: antitherapeutic antibodies (ATA); assay: Antitherapeutic antibodies; assay type: in vivo, human
[3] = system: CYP3A; assay: Effect of ketoconazole on brentuximab vedotin; assay type: in vivo, human; conditions: for ADC Cmax: serum; for ADC Cmax / MMAE Tmax / MMAE Cmax: n=16; for MMAE Tmax: median (range)
[4] = system: relapsed/refractory systemic ALCL; conditions: 1.8 mg/kg IV every 3 weeks for up to 16 cycles; cited from earlier work
[5] = Safety assessments: adverse events and laboratory abnormalities; assay type: in vivo, human
[6] = system: CYP3A; assay: Effect of rifampin on brentuximab vedotin; assay type: in vivo, human; conditions: for MMAE Tmax: median (range)
[7] = system: CYP3A; conditions: not of this paper; cited from earlier work
[8] = on a mass basis; cited from earlier work
[9] = Excretion of MMAE in urine and feces; assay type: in vivo, human

## Cc1ncc2n1-c1ccc(Cl)cc1C(c1ccccc1F)=NC2 [Midazolam, midazolam]
[1]; human, plasma, intravenous
  Tmax: 2.52 min
  half-life: 5.69 h
[1]; human, plasma, intravenous, 1 mg
  Tmax: 3 min
[1]; human, plasma, iv, 1 mg
  AUC(0-inf): 0.079 µg·h/mL
  Cmax: 0.073 µg/mL
  half-life: 6.4 h

## brentuximab vedotin: ADC directed to human CD30: MMAE conjugated to the anti-CD30 antibody cAC10 through a protease-cleavable linker
[2]; PK-evaluable patients in the ketoconazole arm
  patients with at least 1 positive postbaseline ATA result: 8 of 16
[2]; PK-evaluable patients in the rifampin arm
  patients with at least 1 positive postbaseline ATA result: Five of 14
[2]; all patients
  patients free of confirmed ATA at baseline but positive at one or both postbaseline timepoints: Eighteen
[2]; with one exception (one patient 3125 prior to second dose)
  titers of all confirmed positive ATA results: ≤ 125
[3]; brentuximab vedotin 1.2 mg/kg alone, geometric mean (%CV), n=11
  ADC t1/2: 5.70 (33) d
[3]; brentuximab vedotin 1.2 mg/kg alone, geometric mean (%CV)
  ADC Cmax: 22.57 (23) μg/mL
[3]; brentuximab vedotin 1.2 mg/kg with ketoconazole, geometric mean (%CV)
  ADC Cmax: 22.38 (70) μg/mL
[4]
  objective response rate: 86%
[5]; Ket arm, both cycles (n = 19)
  Adverse events: Any event: 19 (100) n (%)
  Adverse events: Diarrhea: 6 (32) n (%)
  Adverse events: Fatigue: 8 (42) n (%)
  Adverse events: Headache: 4 (21) n (%)
  Adverse events: Nausea: 9 (47) n (%)
  Adverse events: Neutropenia: 3 (16) n (%)
  Adverse events: Pruritis: 4 (21) n (%)
  Adverse events: Pyrexia: 7 (37) n (%)
  Adverse events: Vomiting: 6 (32) n (%)
[5]; Ket arm, post-ket (N = 19)
  Adverse events: Any event: 16 (84) n (%)
  Adverse events: Diarrhea: 6 (32) n (%)
  Adverse events: Fatigue: 5 (26) n (%)
  Adverse events: Headache: 4 (21) n (%)
  Adverse events: Nausea: 5 (26) n (%)
  Adverse events: Neutropenia: 3 (16) n (%)
  Adverse events: Pruritis: 3 (16) n (%)
  Adverse events: Pyrexia: 2 (11) n (%)
  Adverse events: Vomiting: 6 (32) n (%)
[5]; Ket arm, pre-ket (N = 19)
  Adverse events: Any event: 16 (84) n (%)
  Adverse events: Diarrhea: 1 (5) n (%)
  Adverse events: Fatigue: 4 (21) n (%)
  Adverse events: Headache: 0 n (%)
  Adverse events: Nausea: 5 (26) n (%)
  Adverse events: Neutropenia: 0 n (%)
  Adverse events: Pruritis: 1 (5) n (%)
  Adverse events: Pyrexia: 6 (32) n (%)
  Adverse events: Vomiting: 3 (16) n (%)
[5]; Mid arm, both cycles (n = 16)
  Adverse events: Any event: 14 (88) n (%)
  Adverse events: Diarrhea: 3 (19) n (%)
  Adverse events: Fatigue: 3 (19) n (%)
  Adverse events: Headache: 4 (25) n (%)
  Adverse events: Nausea: 2 (13) n (%)
  Adverse events: Neutropenia: 1 (6) n (%)
  Adverse events: Pruritis: 1 (6) n (%)
  Adverse events: Pyrexia: 0 n (%)
  Adverse events: Vomiting: 2 (13) n (%)
[5]; Rif arm, Cycle 1 (N = 21)
  Adverse events: Any event: 18 (86) n (%)
  Adverse events: Diarrhea: 2 (10) n (%)
  Adverse events: Fatigue: 1 (5) n (%)
  Adverse events: Headache: 3 (14) n (%)
  Adverse events: Nausea: 6 (29) n (%)
  Adverse events: Neutropenia: 6 (29) n (%)
  Adverse events: Pruritis: 3 (14) n (%)
  Adverse events: Pyrexia: 6 (29) n (%)
  Adverse events: Vomiting: 2 (10) n (%)
[5]; Rif arm, Cycle 2 (N = 20)
  Adverse events: Any event: 17 (85) n (%)
  Adverse events: Diarrhea: 3 (15) n (%)
  Adverse events: Fatigue: 4 (20) n (%)
  Adverse events: Headache: 2 (10) n (%)
  Adverse events: Nausea: 2 (10) n (%)
  Adverse events: Neutropenia: 5 (25) n (%)
  Adverse events: Pruritis: 2 (10) n (%)
  Adverse events: Pyrexia: 0 n (%)
  Adverse events: Vomiting: 1 (5) n (%)
[5]; Rif arm, both cycles (n = 21)
  Adverse events: Any event: 20 (95) n (%)
  Adverse events: Diarrhea: 4 (19) n (%)
  Adverse events: Fatigue: 5 (24) n (%)
  Adverse events: Headache: 5 (24) n (%)
  Adverse events: Nausea: 6 (29) n (%)
  Adverse events: Neutropenia: 7 (33) n (%)
  Adverse events: Pruritis: 4 (19) n (%)
  Adverse events: Pyrexia: 6 (29) n (%)
  Adverse events: Vomiting: 2 (10 n (%)
[5]; Total, both cycles (N = 56)
  Adverse events: Any event: 53 (95) n (%)
  Adverse events: Diarrhea: 13 (23) n (%)
  Adverse events: Fatigue: 16 (29) n (%)
  Adverse events: Headache: 13 (23) n (%)
  Adverse events: Nausea: 17 (30) n (%)
  Adverse events: Neutropenia: 11 (20) n (%)
  Adverse events: Pruritis: 9 (16) n (%)
  Adverse events: Pyrexia: 13 (23) n (%)
  Adverse events: Vomiting: 10 (18) n (%)
[5]; all patients (N = 56), 2 treatment cycles
  treatment-emergent peripheral neuropathy: 18%
[5]; all patients, 5 patients
  low hemoglobin, change from Grade 1 or 2 to ≥ Grade 3: 9%
  low lymphocyte counts, change from Grade 1 or 2 to ≥ Grade 3: 9%
  low platelet counts, change from Grade 1 or 2 to ≥ Grade 3: 9%
[5]; all patients, 6 patients
  elevated ALT, change from Grade 1 or 2 to ≥ Grade 3: 11%
[5]; all patients, 7 patients
  low white blood cell count, change from Grade 1 or 2 to ≥ Grade 3: 13%
[5]; ketoconazole arm, after ketoconazole, 1 patient
  peripheral neuropathy events: 5%
[5]; ketoconazole arm, after ketoconazole, 2 patients
  elevated AST (adverse event): 11%
[5]; ketoconazole arm, before ketoconazole dosing, 4 patients
  incidence of adverse events ≥ Grade 3: 21%
[5]; ketoconazole arm, before ketoconazole, 1 patient
  elevated AST (adverse event): 5%
[5]; ketoconazole arm, before ketoconazole, 2 patients
  peripheral neuropathy events: 11%
[5]; ketoconazole arm, both before and after ketoconazole, 1 patient
  elevated ALT (adverse event): 5%
[6]; brentuximab vedotin 1.8 mg/kg alone, geometric mean (%CV), n=11
  ADC t1/2: 5.87 (66) d
[6]; brentuximab vedotin 1.8 mg/kg alone, serum, geometric mean (%CV), n=11
  ADC Cmax: 36.74 (34) μg/mL
[1]
  inhibition or induction of CYP3A in humans (conclusion): neither inhibitors nor inducers of CYP3A; also recorded: neither inhibit nor induce CYP3A

## CC[C@H](C)[C@@H]([C@@H](CC(=O)N1CCC[C@H]1[C@H](OC)[C@@H](C)C(=O)N[C@H](C)[C@@H](O)c1ccccc1)OC)N(C)C(=O)[C@@H](NC(=O)[C@@H](NC)C(C)C)C(C)C [MMAE, monomethyl auristatin E] (H-[NMeV]V[Dil][Dolaproine]-X1)
[7]
  CYP3A induction (in vitro studies): does not induce CYP3A
[8]
  MMAE exposures lower than those of the ADC: ~ 2000 fold
[9]; after concentrating the liquid-liquid extracts ten-fold, LC-MS/MS
  number of MMAE metabolites detected in urine and feces: 8
[9]; estimate, metabolites only detected upon 10-fold concentration
  concentration of MMAE in excreta relative to its metabolites: at least 10 fold
[9]; of MMAE received during a brentuximab vedotin 1.8 mg/kg infusion, over a 1-week period, n=8
  MMAE recovered in urine and feces: ~ 23.5%
[9]; over 1 week after brentuximab vedotin 1.8 mg/kg, remainder in urine
  percentage of recovered MMAE excreted in feces, median: 72%
[3]; brentuximab vedotin 1.2 mg/kg IV alone, plasma, geometric mean (%CV), n=14
  MMAE AUC0-∞: 26.65 (71) d·ng/mL
[3]; brentuximab vedotin 1.2 mg/kg alone, geometric mean (%CV), n=14
  MMAE t1/2: 3.06 (13) d
[3]; brentuximab vedotin 1.2 mg/kg alone
  MMAE Tmax: 1.97 (0.97, 6.99) ^a d
[3]; brentuximab vedotin 1.2 mg/kg alone, plasma, geometric mean (%CV)
  MMAE Cmax: 4.11 (71) ng/mL
[3]; brentuximab vedotin 1.2 mg/kg with ketoconazole vs alone
  MMAE exposures higher when ketoconazole was coadministered: ~ 34%
[3]; brentuximab vedotin 1.2 mg/kg with ketoconazole, geometric mean (%CV), n=14
  MMAE t1/2: 3.47 (66) d
[3]; brentuximab vedotin 1.2 mg/kg with ketoconazole
  MMAE Tmax: 2.45 (0.22, 4.06) ^a d
[3]; brentuximab vedotin 1.2 mg/kg with ketoconazole, plasma, geometric mean (%CV)
  MMAE Cmax: 5.13 (114) ng/mL
[3]; in Cycle 1, exploratory analysis of the period effect
  potential increase of MMAE AUC0-∞ by coadministration of ketoconazole: ~ 73%
[3]; later cycles, relative to Cycle 1 MMAE levels without ketoconazole
  expected increase in MMAE levels with ketoconazole: ≤ 38%
[6]; brentuximab vedotin 1.8 mg/kg IV alone, plasma, geometric mean (%CV), n=14
  MMAE AUC0-∞: 40.06 (53) d·ng/mL
[6]; brentuximab vedotin 1.8 mg/kg alone, geometric mean (%CV), n=14
  MMAE t1/2: 3.71 (19) d
[6]; brentuximab vedotin 1.8 mg/kg alone, n=14
  MMAE Tmax: 3.00 (0.99, 5.01) ^a d
[6]; brentuximab vedotin 1.8 mg/kg alone, plasma, geometric mean (%CV), n=14
  MMAE Cmax: 4.98 (67) ng/mL
[6]; brentuximab vedotin 1.8 mg/kg with rifampin vs alone
  MMAE exposures lower when rifampin was coadministered: ~ 46%
[6]; brentuximab vedotin 1.8 mg/kg with rifampin, geometric mean (%CV), n=14
  MMAE t1/2: 3.66 (17) d
[6]; brentuximab vedotin 1.8 mg/kg with rifampin, n=14
  MMAE Tmax: 1.49 (0.33, 4.02) ^a d
[6]; brentuximab vedotin 1.8 mg/kg with rifampin, plasma, geometric mean (%CV), n=14
  MMAE Cmax: 2.80 (36) ng/mL
[1]
  inhibition or induction of CYP3A in humans (conclusion): neither inhibitors nor inducers of CYP3A; also recorded: neither an inhibitor nor inducer of CYP3A
